Results: the supplement of paper PMC9233669
This sample holds only a part of the variants without activity.

Experiments:
biotinyl-Trp-oxazolone = test: self-aminoacylation, catalytic enhancement (BWO) (fold over background); higher = more active; k-Seq, kA / k0A0; sequences stand for … in GGGAAUGGAUCCACAUCUACGAAUUC…UUCACUGCAGACUUGACGAAGCUG
Procedure, shortened: (§1)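 The uncatalyzed rate is the low-activity peak of a bimodal Gaussian fit, and catalytic enhancement is median kA divided by it. The kA values came from pseudo-first-order fits, with 1000 bootstraps, of per-sequence fraction reacted measured by streptavidin capture, triplicate qPCR and Illumina sequencing. Mutagenized RNA pools with a 21-nt variable region (0.43 μM) were reacted with each biotinyl-aminoacyl-oxazolone at 2–1250 μM in 50 μL HEPES/NaCl/KCl/MgCl2/CaCl2 buffer with 5% acetonitrile, pH 6.9–7.0, for 90 minutes at room temperature.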

biotinyl-Phe-oxazolone = test: self-aminoacylation, catalytic enhancement (BFO) (fold over background); higher = more active; k-Seq, kA / k0A0; sequences stand for … in GGGAAUGGAUCCACAUCUACGAAUUC…UUCACUGCAGACUUGACGAAGCUG
Procedure, shortened: as §1

biotinyl-Leu-oxazolone = test: self-aminoacylation, catalytic enhancement (BLO) (fold over background); higher = more active; k-Seq, kA / k0A0; sequences stand for … in GGGAAUGGAUCCACAUCUACGAAUUC…UUCACUGCAGACUUGACGAAGCUG
Procedure, shortened: as §1

“AAGUAUGCUAAUAGUCGUAAG [Fam3.1 aminoacylation ribozyme variant]” showed a self-aminoacylation (biotinyl-Trp-oxazolone) of 8.96 and a self-aminoacylation (biotinyl-Phe-oxazolone) of 33.1.
Sequence “AAGUCGGCUAAUAGUCGCAAG [Fam3.1 aminoacylation ribozyme variant]” has a self-aminoacylation (biotinyl-Trp-oxazolone) of 4.2 and a self-aminoacylation (biotinyl-Phe-oxazolone) of 9.73.
“AAGUGUGCUAAUAGUCGGAAG [Fam3.1 aminoacylation ribozyme variant]” showed a self-aminoacylation (biotinyl-Trp-oxazolone) of 3.96 and a self-aminoacylation (biotinyl-Phe-oxazolone) of 11.
For “AAGUUCGCUAAUAGUCGUAAG [Fam3.1 aminoacylation ribozyme variant]”, the self-aminoacylation (biotinyl-Trp-oxazolone) was 4.33 and the self-aminoacylation (biotinyl-Phe-oxazolone) was 13.7.
“AAGUUGGCUAAUAGUCGCAAA [Fam3.1 aminoacylation ribozyme variant]” gave a self-aminoacylation (biotinyl-Trp-oxazolone) of 2.03 and a self-aminoacylation (biotinyl-Phe-oxazolone) of 2.83.
With “AAGUUUGAUUAUAGUCGCAAG [Fam3.1 aminoacylation ribozyme variant]” the self-aminoacylation (biotinyl-Trp-oxazolone) was 2.07 and the self-aminoacylation (biotinyl-Phe-oxazolone) was 2.29.
“AAGUUUGCUAAUAGUCGCGAA [Fam3.1 aminoacylation ribozyme variant]” gave a self-aminoacylation (biotinyl-Trp-oxazolone) of 3.37 and a self-aminoacylation (biotinyl-Phe-oxazolone) of 6.39.
“AAGUUUGCUCAUAGUCGUAAG [Fam3.1 aminoacylation ribozyme variant]” was tested, and the self-aminoacylation (biotinyl-Trp-oxazolone) was 3.67 and the self-aminoacylation (biotinyl-Phe-oxazolone) was 14.6.
In the case of “ACACACUUCAAGUAAUCGGUC [Fam1B.1 aminoacylation ribozyme variant]”, the self-aminoacylation (biotinyl-Trp-oxazolone) is reported as 6 and the self-aminoacylation (biotinyl-Phe-oxazolone) is reported as 7.88.
In the case of “ACAUACUUCAAGCAAUCGGUC [Fam1B.1 aminoacylation ribozyme variant]”, the self-aminoacylation (biotinyl-Trp-oxazolone) is reported as 5.65 and the self-aminoacylation (biotinyl-Phe-oxazolone) is reported as 10.3.
In the case of “AGGUAUGCUAAUAGUCGCAAG [Fam3.1 aminoacylation ribozyme variant]”, the self-aminoacylation (biotinyl-Trp-oxazolone) is reported as 3.41 and the self-aminoacylation (biotinyl-Phe-oxazolone) is reported as 9.64.
Sequence “AUAAUUCAAACAAUCGGUCUG [Fam1A.1 aminoacylation ribozyme variant]” has a self-aminoacylation (biotinyl-Trp-oxazolone) of 2.97 and a self-aminoacylation (biotinyl-Phe-oxazolone) of 4.88.
Sequence “AUUACCCUGGCCGUCGAGUGA [Fam2.1 aminoacylation ribozyme variant]” has a self-aminoacylation (biotinyl-Trp-oxazolone) of 2.4 and a self-aminoacylation (biotinyl-Phe-oxazolone) of 2.1.
“AUUCACCUAGGUCAUCUGGCG [Fam2.2 aminoacylation ribozyme variant]” gave a self-aminoacylation (biotinyl-Leu-oxazolone) of 2.88.
“AUUCACCUAGGUUAUCGGGUU [Fam2.2 aminoacylation ribozyme variant]” was tested, and the self-aminoacylation (biotinyl-Trp-oxazolone) was 2.04 and the self-aminoacylation (biotinyl-Phe-oxazolone) was 5.07.
In the case of “CAAAACUUCAAGCAAUCGGUC [Fam1B.1 aminoacylation ribozyme variant]”, the self-aminoacylation (biotinyl-Trp-oxazolone) is reported as 10.6 and the self-aminoacylation (biotinyl-Phe-oxazolone) is reported as 15.2.
With “CCAAACUUCAAGGAAUCGGUC [Fam1B.1 aminoacylation ribozyme variant]” the self-aminoacylation (biotinyl-Trp-oxazolone) was 5.42 and the self-aminoacylation (biotinyl-Phe-oxazolone) was 5.98.
Sequence “CCAAUCUUCAAGCAAUCGGUC [Fam1B.1 aminoacylation ribozyme variant]” has a self-aminoacylation (biotinyl-Trp-oxazolone) of 10.7 and a self-aminoacylation (biotinyl-Phe-oxazolone) of 18.1.
Sequence “CCACAAUUCAAUCAAUCGGUC [Fam1B.1 aminoacylation ribozyme variant]” has a self-aminoacylation (biotinyl-Trp-oxazolone) of 5.08 and a self-aminoacylation (biotinyl-Phe-oxazolone) of 10.8.
Sequence “CCACACUCCAAUCAAUCGGUC [Fam1B.1 aminoacylation ribozyme variant]” has a self-aminoacylation (biotinyl-Trp-oxazolone) of 3.48 and a self-aminoacylation (biotinyl-Phe-oxazolone) of 5.95.
Sequence “CCACACUUCAAAAAAUCGGUC [Fam1B.1 aminoacylation ribozyme variant]” has a self-aminoacylation (biotinyl-Trp-oxazolone) of 14.5 and a self-aminoacylation (biotinyl-Phe-oxazolone) of 18.2.
For “CCACACUUCAACAAAUCGGUC [Fam1B.1 aminoacylation ribozyme variant]”, the self-aminoacylation (biotinyl-Trp-oxazolone) was 7.95 and the self-aminoacylation (biotinyl-Phe-oxazolone) was 11.5.
“CCACACUUCAAGGAAUCGGUC [Fam1B.1 aminoacylation ribozyme variant]” gave a self-aminoacylation (biotinyl-Trp-oxazolone) of 6.13 and a self-aminoacylation (biotinyl-Phe-oxazolone) of 8.21.
Sequence “CCACACUUGAAGCAUUCGGUC [Fam1B.1 aminoacylation ribozyme variant]” has a self-aminoacylation (biotinyl-Trp-oxazolone) of 2.09 and a self-aminoacylation (biotinyl-Phe-oxazolone) of 3.66.
“CCACAGUUCAAGCAAUCGGUC [Fam1B.1 aminoacylation ribozyme variant]” gave a self-aminoacylation (biotinyl-Trp-oxazolone) of 3.69 and a self-aminoacylation (biotinyl-Phe-oxazolone) of 5.12.
Work on “CCACCUCAAACAAUCGGUCUG [Fam1A.1 aminoacylation ribozyme variant]” yielded a self-aminoacylation (biotinyl-Trp-oxazolone) of 4.25 and a self-aminoacylation (biotinyl-Phe-oxazolone) of 4.25.
With “CCACUCUUCAACCAAUCGGUC [Fam1B.1 aminoacylation ribozyme variant]” the self-aminoacylation (biotinyl-Trp-oxazolone) was 27 and the self-aminoacylation (biotinyl-Phe-oxazolone) was 45.7.
“CCACUCUUCAAGCAAUCAGUC [Fam1B.1 aminoacylation ribozyme variant]” showed a self-aminoacylation (biotinyl-Trp-oxazolone) of 2.76 and a self-aminoacylation (biotinyl-Phe-oxazolone) of 8.2.
“CCCUACUUCAAGCAAUCGGUC [Fam1B.1 aminoacylation ribozyme variant]” showed a self-aminoacylation (biotinyl-Trp-oxazolone) of 33.8 and a self-aminoacylation (biotinyl-Phe-oxazolone) of 73.5.
“CGACCUCAAACAAUCGGUCUG [Fam1A.1 aminoacylation ribozyme variant]” showed a self-aminoacylation (biotinyl-Trp-oxazolone) of 4.64 and a self-aminoacylation (biotinyl-Phe-oxazolone) of 3.54.
“CGACUUCAAAUAAUCGGUCUG [Fam1A.1 aminoacylation ribozyme variant]” was tested, and the self-aminoacylation (biotinyl-Trp-oxazolone) was 14.6 and the self-aminoacylation (biotinyl-Phe-oxazolone) was 16.2.
For “CGAGACUUCAAGCAAUCGGUC [Fam1B.1 aminoacylation ribozyme variant]”, the self-aminoacylation (biotinyl-Trp-oxazolone) was 4.16 and the self-aminoacylation (biotinyl-Phe-oxazolone) was 5.77.
Work on “CUACACUUCAAGAAAUCGGUC [Fam1B.1 aminoacylation ribozyme variant]” yielded a self-aminoacylation (biotinyl-Trp-oxazolone) of 5.31 and a self-aminoacylation (biotinyl-Phe-oxazolone) of 8.72.
Work on “CUACCUCCAACAAUCGGUCUG [Fam1A.1 aminoacylation ribozyme variant]” yielded a self-aminoacylation (biotinyl-Trp-oxazolone) of 3.94 and a self-aminoacylation (biotinyl-Phe-oxazolone) of 4.71.
For “CUACGUCAAACAAUCGGUGUG [Fam1A.1 aminoacylation ribozyme variant]”, the self-aminoacylation (biotinyl-Leu-oxazolone) was 2.02.
In the case of “CUACUUCAAACAAUCGGGCUG [Fam1A.1 aminoacylation ribozyme variant]”, the self-aminoacylation (biotinyl-Trp-oxazolone) is reported as 9.43 and the self-aminoacylation (biotinyl-Phe-oxazolone) is reported as 13.2.
“CUACUUCAAACAAUCGGUCGG [Fam1A.1 aminoacylation ribozyme variant]” gave a self-aminoacylation (biotinyl-Trp-oxazolone) of 17.3 and a self-aminoacylation (biotinyl-Phe-oxazolone) of 27.4.
With “CUACUUCAAACAAUCGGUCUA [Fam1A.1 aminoacylation ribozyme variant]” the self-aminoacylation (biotinyl-Trp-oxazolone) was 10 and the self-aminoacylation (biotinyl-Phe-oxazolone) was 24.5.
For “CUACUUCAAAUAAUCGGUCUC [Fam1A.1 aminoacylation ribozyme variant]”, the self-aminoacylation (biotinyl-Trp-oxazolone) was 7.99 and the self-aminoacylation (biotinyl-Phe-oxazolone) was 15.6.
“CUACUUCAACCAAUCGGUCAG [Fam1A.1 aminoacylation ribozyme variant]” showed a self-aminoacylation (biotinyl-Trp-oxazolone) of 3.33 and a self-aminoacylation (biotinyl-Phe-oxazolone) of 6.18.
“CUACUUCAACCAAUCGGUCUA [Fam1A.1 aminoacylation ribozyme variant]” gave a self-aminoacylation (biotinyl-Trp-oxazolone) of 7 and a self-aminoacylation (biotinyl-Phe-oxazolone) of 11.9.
“CUACUUCAAGCAAUCGGUCCG [Fam1A.1 aminoacylation ribozyme variant]” showed a self-aminoacylation (biotinyl-Trp-oxazolone) of 3.02 and a self-aminoacylation (biotinyl-Phe-oxazolone) of 3.44.
Work on “CUACUUCAAGCAAUCGGUCUA [Fam1A.1 aminoacylation ribozyme variant]” yielded a self-aminoacylation (biotinyl-Trp-oxazolone) of 4.06 and a self-aminoacylation (biotinyl-Phe-oxazolone) of 7.64.
“CUACUUCAAGCAAUCGGUCUC [Fam1A.1 aminoacylation ribozyme variant]” was tested, and the self-aminoacylation (biotinyl-Trp-oxazolone) was 6.61 and the self-aminoacylation (biotinyl-Phe-oxazolone) was 11.4.
In the case of “CUACUUCAAUCAAUCGGACUG [Fam1A.1 aminoacylation ribozyme variant]”, the self-aminoacylation (biotinyl-Trp-oxazolone) is reported as 4.18 and the self-aminoacylation (biotinyl-Phe-oxazolone) is reported as 8.24.
“CUACUUCAAUCAAUCGGUCAG [Fam1A.1 aminoacylation ribozyme variant]” showed a self-aminoacylation (biotinyl-Trp-oxazolone) of 3.51 and a self-aminoacylation (biotinyl-Phe-oxazolone) of 7.4.
“CUACUUCAAUCAAUCGGUCCG [Fam1A.1 aminoacylation ribozyme variant]” was tested, and the self-aminoacylation (biotinyl-Trp-oxazolone) was 4.75 and the self-aminoacylation (biotinyl-Phe-oxazolone) was 6.48.
For “CUACUUCAAUCAAUCGGUCUC [Fam1A.1 aminoacylation ribozyme variant]”, the self-aminoacylation (biotinyl-Trp-oxazolone) was 14.9 and the self-aminoacylation (biotinyl-Phe-oxazolone) was 25.9.
Work on “CUAGUUCAAACAAUCAGUCUG [Fam1A.1 aminoacylation ribozyme variant]” yielded a self-aminoacylation (biotinyl-Trp-oxazolone) of 2.15 and a self-aminoacylation (biotinyl-Phe-oxazolone) of 5.02.
With “CUAGUUCAAACAAUCGGUCGG [Fam1A.1 aminoacylation ribozyme variant]” the self-aminoacylation (biotinyl-Trp-oxazolone) was 2.94 and the self-aminoacylation (biotinyl-Phe-oxazolone) was 4.12.
For “CUAUUUCAAUCAAUCGGUCUG [Fam1A.1 aminoacylation ribozyme variant]”, the self-aminoacylation (biotinyl-Trp-oxazolone) was 3.72 and the self-aminoacylation (biotinyl-Phe-oxazolone) was 6.36.
For “CUCAUUCAAACAAUCGGUCUG [Fam1A.1 aminoacylation ribozyme variant]”, the self-aminoacylation (biotinyl-Trp-oxazolone) was 7.42 and the self-aminoacylation (biotinyl-Phe-oxazolone) was 11.7.
Sequence “CUCCUUCAAACAAUCGGGCUG [Fam1A.1 aminoacylation ribozyme variant]” has a self-aminoacylation (biotinyl-Trp-oxazolone) of 14.4 and a self-aminoacylation (biotinyl-Phe-oxazolone) of 15.1.
With “CUCCUUCAAACAAUCGGUCUU [Fam1A.1 aminoacylation ribozyme variant]” the self-aminoacylation (biotinyl-Trp-oxazolone) was 16.3 and the self-aminoacylation (biotinyl-Phe-oxazolone) was 25.4.
Sequence “CUGCUCCAAACAAUCGGUCUG [Fam1A.1 aminoacylation ribozyme variant]” has a self-aminoacylation (biotinyl-Trp-oxazolone) of 20.3 and a self-aminoacylation (biotinyl-Phe-oxazolone) of 27.
“CUGCUUCAAUCAAUCGGUCUG [Fam1A.1 aminoacylation ribozyme variant]” gave a self-aminoacylation (biotinyl-Trp-oxazolone) of 26.8 and a self-aminoacylation (biotinyl-Phe-oxazolone) of 44.2.
With “GUACUUCAAACAAUCAGUCUG [Fam1A.1 aminoacylation ribozyme variant]” the self-aminoacylation (biotinyl-Trp-oxazolone) was 10.3 and the self-aminoacylation (biotinyl-Phe-oxazolone) was 19.3.
Sequence “UAACACUUCAAGCAAUCGGUC [Fam1B.1 aminoacylation ribozyme variant]” has a self-aminoacylation (biotinyl-Trp-oxazolone) of 13.3 and a self-aminoacylation (biotinyl-Phe-oxazolone) of 25.6.
“UAGUUUGCUAACAGUCGCAAG [Fam3.1 aminoacylation ribozyme variant]” gave a self-aminoacylation (biotinyl-Trp-oxazolone) of 3.08 and a self-aminoacylation (biotinyl-Phe-oxazolone) of 5.84.
“UCACACUUCAAGCAAUCGGCC [Fam1B.1 aminoacylation ribozyme variant]” gave a self-aminoacylation (biotinyl-Trp-oxazolone) of 4 and a self-aminoacylation (biotinyl-Phe-oxazolone) of 4.64.
Sequence “UUACUUCAACCAAUCGGUCUG [Fam1A.1 aminoacylation ribozyme variant]” has a self-aminoacylation (biotinyl-Trp-oxazolone) of 11.2 and a self-aminoacylation (biotinyl-Phe-oxazolone) of 16.2.
